Measured values from paper PMC3569735.

Experiments:
V1–V2 bnAb PG9 (human) = assay: SPR
mAb CH59 (human) = assay: SPR

**Q.** For AE.A244 gp120Δ11 (natural protein), which Kd (V1–V2 bnAb PG9 (human)) is on record?
**A.** 0.0421 µM

**Q.** And the Kd (mAb CH59 (human))?
**A.** 0.0022 µM
